The values below come from article PMC11077084, “Biochemical characterization of the meiosis-essential yet evolutionarily divergent topoisomerase VIB-like protein MTOPVIB from Arabidopsis thaliana” (Nucleic Acids Research, 2024).

Data set [1] concerns the target T1, N. equitans Topo VI complex (Topo VIA•Topo VIB) (Nanoarchaeum equitans, UniProt Q74N98).
T1 construct: gene top6B; codon-optimized Topo VIA and VIB co-expressed from pETDuet in E. coli Rosetta (DE3) pLysS; heat step, Ni-NTA; A2B2 heterotetramer; with Type 2 DNA topoisomerase 6 subunit A
T1 sequence (Q74N98 1-567): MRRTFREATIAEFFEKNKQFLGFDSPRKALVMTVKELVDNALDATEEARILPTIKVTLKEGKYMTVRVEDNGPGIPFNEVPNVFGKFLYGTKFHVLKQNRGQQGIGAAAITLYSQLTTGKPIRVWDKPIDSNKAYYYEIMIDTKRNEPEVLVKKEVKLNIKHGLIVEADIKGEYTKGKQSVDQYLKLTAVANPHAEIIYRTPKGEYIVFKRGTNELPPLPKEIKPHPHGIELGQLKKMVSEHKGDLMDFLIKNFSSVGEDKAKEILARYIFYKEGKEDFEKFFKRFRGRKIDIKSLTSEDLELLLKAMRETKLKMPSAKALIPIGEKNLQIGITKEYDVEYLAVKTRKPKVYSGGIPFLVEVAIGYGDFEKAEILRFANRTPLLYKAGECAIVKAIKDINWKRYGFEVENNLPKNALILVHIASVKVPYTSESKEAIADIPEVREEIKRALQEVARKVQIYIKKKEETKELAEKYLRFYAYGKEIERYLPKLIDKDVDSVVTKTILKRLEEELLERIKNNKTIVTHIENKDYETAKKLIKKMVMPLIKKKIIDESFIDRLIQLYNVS
T1 sequence (Q74M54 1-359 partner): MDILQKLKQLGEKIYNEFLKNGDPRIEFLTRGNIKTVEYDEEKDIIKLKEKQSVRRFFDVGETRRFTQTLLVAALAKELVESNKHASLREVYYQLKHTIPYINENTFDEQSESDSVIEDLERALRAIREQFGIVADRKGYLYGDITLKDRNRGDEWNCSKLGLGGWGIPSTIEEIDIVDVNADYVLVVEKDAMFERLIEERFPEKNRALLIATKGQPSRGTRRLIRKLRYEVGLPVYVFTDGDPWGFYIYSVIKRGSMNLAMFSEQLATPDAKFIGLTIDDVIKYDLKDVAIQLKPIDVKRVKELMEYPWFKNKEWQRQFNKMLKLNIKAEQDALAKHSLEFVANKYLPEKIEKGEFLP
In words: radioisotope-based ATPase assay; also ATP-agarose pulldown. The format is biochemical. To be noted: labelled compound (gamma-32P) in the ATPase assay.

For another data set, the target named is T2, MTOPVIB (Arabidopsis thaliana, UniProt Q5Q0E6 1-473).
T2 sequence: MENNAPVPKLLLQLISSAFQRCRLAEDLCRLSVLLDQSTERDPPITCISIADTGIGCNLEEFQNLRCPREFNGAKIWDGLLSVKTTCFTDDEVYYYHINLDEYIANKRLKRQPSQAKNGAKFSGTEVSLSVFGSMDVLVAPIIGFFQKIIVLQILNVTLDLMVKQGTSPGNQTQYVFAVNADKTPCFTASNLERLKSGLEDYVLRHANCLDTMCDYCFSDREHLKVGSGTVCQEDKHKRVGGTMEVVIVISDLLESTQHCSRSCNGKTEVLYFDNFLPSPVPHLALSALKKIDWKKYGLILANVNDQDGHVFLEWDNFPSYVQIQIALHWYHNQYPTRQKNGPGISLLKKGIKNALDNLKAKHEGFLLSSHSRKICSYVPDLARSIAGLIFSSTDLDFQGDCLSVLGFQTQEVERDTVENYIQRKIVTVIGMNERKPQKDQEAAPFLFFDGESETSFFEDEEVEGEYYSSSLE
In words: SPR; reaction buffer F, 0.05% Tween 20, 23 C; 1:1 global fit; EMSA: reaction buffer F (composition not in material) + 0.1 mg/ml BSA, 23 C, 30 min, 0.8% agarose-TBE at 4 C (6% PAGE for the competition); SPR: buffer F + 0.05% Tween 20, 23 C. To be noted: protein: recombinant; tags: none (His6-MBP removed by PreScission); chain copies: 2; label: 5' biotin on Oligo 1; blunt. On the technique in general: In SPR one partner is held on a chip, and binding of the other changes the refractive index at the surface.

Data set [2] deals with the molecule itself. The experiment in a line: SEC; Hi-Load Superdex 200 in D buffer without imidazole and glycerol, last step of the purification; monomer to dimer. (Size exclusion chromatography separates by hydrodynamic size, large species first.)
Data set [3] concerns the molecule itself. In words: SEC; purified MBP-tagged MTOPVIB on a Superdex 200 Increase 10/300 GL column calibrated with size standards; without ATP; monomer to dimer.

As usually defined, the Kd is the concentration at which binding is half-saturated. As usually defined, the stoichiometry N is a count of units in the complex or per binding partner.

Consider `Nc1ncnc2c1ncn2[C@@H]1O[C@H](COP(=O)(O)OP(=O)(O)OP(=O)(O)O)[C@@H](O)[C@H]1O` [ATP], for which the “radioisotope-based ATPase assay; also ATP-agarose pulldown” value in data set [1] is recorded as “unlike the Topo VI complex that hydrolyzed ATP to release”.

B1: 80 bp dsDNA, biotinylated (dsDNA)
DNA 1: TTATGTTCATTTTTTATATCCTTTACTTTATTTTCTCTGTTTATTCATTTACTTATTTTGTATTATCCTTATCTTATTTA
DNA 2: TAAATAAGATAAGGATAATACAAAATAAGTAAATGAATAAACAGAGAAAATAAAGTAAAGGATATAAAAAATGAACATAA
B1: in the data set with MTOPVIB, the Kd is about 0.15 µM.

B2: Nanoarchaeum equitans Topo VIB (expressed alone from pET21b) (natural protein, UniProt Q74N98 1-567, looked up)
chain: T1 sequence (Q74N98 1-567)
notes: Topoisomerase VI subunit B, Nanoarchaeum equitans, codon-optimized cDNA in the Nde1 and Xho1 sites of pET21b; The tag is inferred from the vector and the Ni-NTA step; also called N. equitans Topo VIB; source: E. coli Rosetta (DE3) pLysS, purified (Ni-NTA, HiPrep SP XL, Hi-Load Superdex 200)
Regarding B2, in data set [2], the “stoichiometry N” value came to 2.

B3: A. thaliana His6-MBP-MTOPVIB (natural protein, UniProt Q5Q0E6 1-473, looked up)
chain: T2 sequence
notes: a PreScission protease site lies between the tag and the protein; Tag not cleaved in the size-exclusion analysis (MBP-tagged MTOPVIB) nor during the amylose step of the complex purification; also called MBP-tagged MTOPVIB; meiotic Topo VIB-like protein; source: High Five insect cells (baculovirus); purified alone (amylose, heparin, Mono Q, Superdex 200), and co-expressed with His6-SPO11-1 and …
As for B3, the “stoichiometry N” value in data set [3] was 2.
